± gives the uncertainty stated by the source.
B1: library; numbered along this chain (parent)
chain: MEVVDPQQLGMFTEGELMSVGMDTFIHRIDSTEVIYQPRRKRAKLIGKYLMGDLLGEGSYGKVKEVLDSETLCRRAVKILKKKKLRRIPNGEANVKKEIQLLRRLRHKNVIQLVDVLYNEEKQKMYMVMEYCVCGMQEMLDSVPEKRFPVCQAHGYFCQLIDGLEYLHSQGIVHKDIKPGNLLLTTGGTLKISDLGVAEALHPFAADDTCRTSQGSPAFQPPEIANGLDTFSGFKVDIWSAGVTLYNITTGLYPFEGDNIYKLFENIGKGSYAIPGDCGPPLSDLLKGMLEYEPAKRFSIRQIRQHSWFRKKHPPAEAPVPIPPSPDTKDRWRSMTVVPYLEDLHGADEDEDLFDIEDDIIYTQDFTVPGQVPEEEASHNGQRRGLPKAVCMNGTEAAQLSTKSRAEGRAPNPARKACSASSKIRRLSACKQQ

Variants of: B1
Assay: STK11 functional score (HeLa growth suppression), rescaled enrichment; synonymous median = 1, nonsense median = 0 (normalised score)
Conditions: with HeLa; variant type: missense
Method in brief: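 HeLa cells carrying an AAVS1 landing pad received codon-optimised STK11 libraries made by codon randomisation (POPCode), integrated by Bxb1, with three regions each transfected three times. Integrants that were BFP-negative and mCherry-positive were sorted by FACS 4–5 days after electroporation and then grown for about two weeks. Tiled amplicons from gDNA were sequenced on NextSeq at ~2 million reads per tile. The functional score is a wild-type-corrected log ratio of post- to pre-selection counts, rescaled to the synonymous and nonsense medians, merged across codons and replicate transfections, and given a bootstrapped error.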

STK11 functional score of substitutions, site by site:
K262: H 1.52 ± 0.42 | G 1.35 ± 0.21 | E 1.31 ± 0.85 | V 1.29 ± 0.3 | Y 1.29 ± 0.3 | M 1.17 ± 0.86 | F 0.714 ± 0.098 | A 1.23 ± 0.36 | R 1.18 ± 0.47 | I 0.763 ± 0.14 | D 1.38 ± 0.2 | T 1.08 ± 0.31 | P 1.56 ± 0.25 | W 1.05 ± 0.19 | S 0.994 ± 0.17 | N 1.33 ± 0.53 | L 1.13 ± 0.13
Y253: D 0.768 ± 0.37 | F 0.587 ± 0.17 | C 0.457 ± 0.26 | S 0.394 ± 0.12 | G 0.758 ± 0.17 | E 1 ± 0.41 | L 1.27 ± 0.12 | W 0.66 ± 0.1 | V 1.56 ± 0.22
D258: F 0.78 ± 0.28 | R 1.29 ± 0.39 | V 1.39 ± 0.37 | A 1.33 ± 0.76 | H 1.62 ± 0.55 | M 0.663 ± 0.18 | L 0.539 ± 0.12 | E 0.739 ± 0.3 | G 1.47 ± 0.15 | C 1.16 ± 0.32 | S 1.42 ± 0.44 | Y 1.49 ± 0.2 | W 1.5 ± 0.51
N259: M 1.35 ± 0.12 | D 1.12 ± 0.63 | H 1.66 ± 0.14 | F 1.25 ± 0.24 | C 1.12 ± 0.42 | S 1.34 ± 0.38 | A -0.00474 ± 0.089 | W 0.92 ± 0.36 | Y 1.1 ± 0.1 | R 1.13 ± 0.46 | V 0.437 ± 0.1 | G 0.492 ± 0.49 | T 1.32 ± 0.51 | L 1.26 ± 0.31 | E 1.47 ± 0.34
G251: I 0.422 ± 0.25 | D 0.751 ± 0.47 | W -0.00281 ± 0.1 | C -0.00733 ± 0.1 | T 1.21 ± 0.25 | Y 0.258 ± 0.24 | V -0.0264 ± 0.098 | L -0.144 ± 0.1 | R 0.411 ± 0.19 | S 1.01 ± 0.2 | A 0.598 ± 0.42 | F 0.127 ± 0.13 | P 0.0226 ± 0.16 | E 0.412 ± 0.098
N247: Q 1.17 ± 0.23 | Y 1.32 ± 0.28 | M 0.7 ± 0.58 | P -0.0537 ± 0.096 | C 1.15 ± 0.4 | H 1.26 ± 0.26 | T 0.951 ± 0.094 | E 1.33 ± 0.12 | G 0.808 ± 0.097 | K 0.794 ± 0.19 | R 0.936 ± 0.16 | L 1.17 ± 0.15 | D 0.827 ± 0.46 | A 1.37 ± 0.11 | I 1.16 ± 0.15 | S 1.3 ± 0.2 | W 0.698 ± 0.082 | F 0.863 ± 0.091 | V 0.824 ± 0.1
S240: H 1.08 ± 0.12 | D 0.841 ± 0.36 | M 0.927 ± 0.66 | Q 0.866 ± 0.15 | A 0.891 ± 0.13 | L 0.708 ± 0.14 | T 1.07 ± 0.16 | N 1.11 ± 0.44 | W -0.126 ± 0.094 | G 1.05 ± 0.16 | E 1.52 ± 0.24 | C 1.38 ± 0.098 | P -0.0488 ± 0.11 | R 0.823 ± 0.1 | I 0.369 ± 0.095 | V 0.33 ± 0.1
L245: P -0.14 ± 0.1 | C 0.21 ± 0.093 | I 0.581 ± 0.1 | S -0.117 ± 0.094 | T -0.038 ± 0.1 | Q 0.383 ± 0.19 | M 0.526 ± 0.22 | G -0.177 ± 0.094 | V 0.345 ± 0.093 | W -0.0585 ± 0.093 | Y -0.0275 ± 0.097 | E -0.0467 ± 0.26 | F 0.00828 ± 0.095 | R -0.0758 ± 0.098 | K 0.475 ± 0.15 | A 0.101 ± 0.099 | D -0.177 ± 0.17 | H -0.0776 ± 0.099
W239: P -0.0966 ± 0.095 | R 0.273 ± 0.15 | Y 0.934 ± 0.097 | T -0.0973 ± 0.1 | V -0.13 ± 0.092 | S 0.00373 ± 0.1
G257: A 1.25 ± 0.6 | E 1.32 ± 0.47 | L 0.765 ± 0.18 | V 1.23 ± 0.17 | R 0.694 ± 0.29 | Y 1.57 ± 0.13 | I 1.66 ± 0.44 | S 1.39 ± 0.13
V243: D -0.0994 ± 0.17 | L 0.714 ± 0.13 | M 0.378 ± 0.14 | Q 1.19 ± 0.52 | S 0.561 ± 0.11 | F 0.591 ± 0.095 | R 0.16 ± 0.099 | W 0.598 ± 0.099 | E 0.204 ± 0.47 | T 1.29 ± 0.26 | I 1.42 ± 0.14 | C 1 ± 0.099 | P -0.157 ± 0.11 | N 0.56 ± 0.19 | A 0.996 ± 0.097 | H -0.00535 ± 0.12 | G 0.469 ± 0.16
I260: L 1.28 ± 0.27 | N 1.67 ± 0.52 | A 0.468 ± 0.26 | G 1.1 ± 0.25 | S 1.44 ± 0.32 | M 1.32 ± 0.26 | R 1.66 ± 0.16 | F 0.763 ± 0.1 | V 1.07 ± 0.18 | E -0.179 ± 0.42 | W 1.21 ± 0.38 | T 1.33 ± 0.69 | D 1.16 ± 0.21
P254: C 0.821 ± 0.47 | F 0.445 ± 0.29 | L 0.528 ± 0.12 | R 0.199 ± 0.14 | V 0.86 ± 0.31 | S 0.653 ± 0.17 | H 1.41 ± 0.15 | A -0.109 ± 0.13 | Y 0.0833 ± 0.12 | T 0.929 ± 0.1 | W 0.882 ± 0.1 | G 0.298 ± 0.11
T249: E -0.289 ± 0.13 | A 0.412 ± 0.66 | G 0.293 ± 0.1 | I 0.664 ± 0.24 | H 1.64 ± 0.2 | D -0.107 ± 0.097 | S 1.24 ± 0.27 | L 1.08 ± 0.3 | N 0.652 ± 0.27 | R 1.28 ± 0.31 | W 0.0979 ± 0.1 | K -0.0774 ± 0.081 | V 1.56 ± 0.1 | M 1.47 ± 0.2 | P -0.0108 ± 0.27
Y246: Q 1.11 ± 0.17 | L 0.818 ± 0.17 | P -0.0491 ± 0.1 | R 0.128 ± 0.28 | A 1.06 ± 0.1 | I 1.13 ± 0.095 | W 1.15 ± 0.092 | H -0.136 ± 0.1 | T 0.982 ± 0.41 | F 0.678 ± 0.097 | D -0.149 ± 0.14 | V 0.944 ± 0.15 | M 1.29 ± 0.17 | C 0.451 ± 0.12 | G 0.403 ± 0.093 | S 0.254 ± 0.12 | E 0.0519 ± 0.077
I248: S 0.859 ± 0.097 | T 1.15 ± 0.2 | F 0.497 ± 0.092 | H -0.139 ± 0.09 | G 0.0645 ± 0.096 | D 0.0228 ± 0.096 | P -0.0931 ± 0.13 | R -0.248 ± 0.13 | Y 0.287 ± 0.15 | C 1 ± 0.24 | V 0.854 ± 0.17 | E 0.873 ± 0.49 | M 1.24 ± 0.3 | L 1.05 ± 0.18 | A 1.15 ± 0.26 | W 0.853 ± 0.099 | Q 1.25 ± 0.49
A241: P 0.702 ± 0.45 | T -0.298 ± 0.45 | G 0.802 ± 0.13 | S 0.863 ± 0.15 | C 1.21 ± 0.1 | D 0.383 ± 0.2
F255: V 1.09 ± 0.13 | D 0.348 ± 0.1 | M 0.792 ± 0.1 | E 0.827 ± 0.37 | A 1.31 ± 0.29 | Q 0.98 ± 0.44 | S 1.14 ± 0.19 | W 0.941 ± 0.1 | T 0.94 ± 0.13 | H 0.97 ± 0.25 | L 0.5 ± 0.21 | N 0.322 ± 0.14 | R 0.632 ± 0.2 | I 1.36 ± 0.38 | C 0.921 ± 0.12 | Y 1.25 ± 0.79 | G 0.519 ± 0.14 | P 0.517 ± 0.11
G242: D 0.0263 ± 0.13 | A 0.823 ± 0.13 | H 0.0155 ± 0.32 | L -0.0195 ± 0.092 | S 0.0147 ± 0.098 | P 0.0217 ± 0.14 | E 0.274 ± 0.12 | V -0.059 ± 0.094 | F 0.0262 ± 0.098 | N -0.133 ± 0.22 | M -0.0974 ± 0.093 | Y -0.0296 ± 0.066 | C -0.0194 ± 0.091 | I -0.186 ± 0.099 | K 0.078 ± 0.73 | R -0.0649 ± 0.095 | T -0.128 ± 0.097
T244: Q -0.178 ± 0.32 | W 0.257 ± 0.092 | K 0.388 ± 0.12 | L 1.02 ± 0.094 | A 0.738 ± 0.12 | F 0.698 ± 0.082 | R 0.00573 ± 0.1 | V 1.15 ± 0.45 | N 0.0991 ± 0.1 | Y 0.127 ± 0.082 | P -0.17 ± 0.1 | D -0.0204 ± 0.1 | G 0.014 ± 0.099 | I 0.627 ± 0.11 | E -0.168 ± 0.099 | C 1.32 ± 0.29 | S 0.613 ± 0.1 | H 0.0105 ± 0.12 | M 1.38 ± 0.098
Y261: A 1.25 ± 0.43 | L 0.609 ± 0.14 | P 1.15 ± 0.38 | F 0.449 ± 0.14 | G 0.901 ± 0.2 | C 0.999 ± 0.41 | T 1.04 ± 0.29 | S 0.699 ± 0.16 | V 1.22 ± 0.4 | W 0.609 ± 0.091 | I 1.62 ± 0.16 | H 0.771 ± 0.86
E256: V 0.873 ± 0.33 | W 1.65 ± 0.13 | I 1.04 ± 0.77 | G 1.17 ± 0.28 | Y 1.4 ± 0.16 | S 1.36 ± 0.4 | F 0.982 ± 0.22 | Q 1.47 ± 0.56 | A 0.686 ± 0.64 | D 1.63 ± 0.4 | R 1.48 ± 0.19 | L 1.52 ± 0.31 | C 0.541 ± 0.33
L252: M 0.771 ± 0.35 | Y 0.274 ± 0.59 | S 1.5 ± 0.22 | W 1.42 ± 0.17 | V 1.3 ± 0.094 | I 1.54 ± 0.12 | F 1.07 ± 0.39
T250: E 0.89 ± 0.1 | W 1.48 ± 0.098 | P -0.224 ± 0.1 | A 1.01 ± 0.11 | L 1.45 ± 0.1 | S 1.37 ± 0.27 | G 0.834 ± 0.095 | V 1.24 ± 0.14 | F 1.14 ± 0.2 | I 1.35 ± 0.2 | H 1.65 ± 0.24 | C 1.22 ± 0.24 | Y 1.31 ± 0.65 | R 0.727 ± 0.25 | K 0.0557 ± 0.22
L263: A 0.39 ± 0.12
